# In patent US10624968B2, “Compounds for treating cancer” (Bicycle Therapeutics Limited, priority 2017, dated 2020):
# Where two headings read alike, the source gives them in different places. Starred links: 1 amine or outer side, 2 acyl side, 3 side chain; linkers in the order of their positions; H or OH if unused. Positions of bridges follow the written chain, without caps; N, C: chain ends. Non-standard residues stand in square brackets, D forms with d. Residues, ends and D or L forms follow the SMILES beside them. Chains are numbered I, II in the order given. ξ: configuration not given here. *: point of attachment. Dolaproine = CO[C@@H]([C@@H]1CCCN1)[C@@H](C)C(=O)O; Dil = CC[C@H](C)[C@H](NC)[C@@H](CC(=O)O)OC; TBMB = c1c(C[*:1])cc(C[*:3])cc1C[*:2]; X2 = O=C(CCCC(=O)[*:2])NCCC(=O)[*:1]; PABC = O=C(OCc1ccc(N[*:1])cc1)[*:2]; X1 = C[C@@H](N*)[C@@H](O)c1ccccc1; ξ1Nal = NC(Cc1cccc2ccccc12)C(=O)O; Cit = NC(=O)NCCC[C@H](N)C(=O)O; NMeV = CN[C@H](C(=O)O)C(C)C; ξY = NC(Cc1ccc(O)cc1)C(=O)O; ξTle = CC(C)(C)C(N)C(=O)O; ξF = NC(Cc1ccccc1)C(=O)O; ξE = NC(CCC(=O)O)C(=O)O; ξD = NC(CC(=O)O)C(=O)O; ξN = NC(=O)CC(N)C(=O)O; ξC = NC(CS)C(=O)O; ξA = CC(N)C(=O)O; Sar = CNCC(=O)O
# Assays:
# 11 tumor cell lines = test: 11 cancer cell line panel cytotoxicity, statements on the whole panel; conditions: all tested cell lines; 72 hours
# Source text: Details of the initial cell plating procedure are described in Table 3.
# Data Details for Tables 5 and 6. Inhibition %=(Max−Sample value)/(Max−Min)*100.
# The IC50 curves were generated by 4 Parameter Logistic Model—Sigmoidal Dose-Response Model as follows: Y=Bottom+(Top−Bottom)/(1+10^((log EC50-X)*HillSlope)).
# [1] = Body weight of mice bearing EBC-1 xenograft (indirect measure of toxicity); assay type: in vivo, mouse
# Protocol: (§1) All the procedures related to animal handling, care and the treatment in the study were performed according to the guidelines of the Association for Assessment and Accreditation of Laboratory Animal Care (AAALAC). At the time of routine monitoring, the animals were daily checked for any effects of tumor growth and treatments on normal behavior such as mobility, food and water consumption (by looking only), body weight gain/loss (body weights were measured every day), eye/hair matting and any other abnormal effect as stated in the protocol. Death and observed clinical signs were recorded on the basis of the numbers of animals within each subset.
# Animal body weight was monitored regularly as an indirect measure of toxicity.
# L540 cells = test: Cytotoxicity in L540 cells in presence and absence of 1 mM bacitracin (ATPlite, 72 hour exposure); assay type: cell-based
# Protocol: L540 cells (DSMZ # ACC72, BIC5121), maintained in RPMI-1640 medium (Sigma # R8758)+20% heat-inactivated serum
# L540—20 k cells/well: 40% confluent upon dosing.
# Bacitracin=1 mM final concentration. This requires a 10 mM concentration with no DMSO.
# Add 100 μL reagent per well. […] Shake for 20 mins before reading luminescence
# [2] = Tolerability (body weight) in LU-01-0486 NSCLC PDX model; assay type: in vivo, mouse
# Protocol: as §1, with “following” for “according to”, “guidance” for “guidelines”, “twice weekly),” for “every day),”
compound,measurement,setting,value
CC[C@H](C)[C@@H]([C@@H](CC(=O)N1CCC[C@H]1[C@H](OC)[C@@H](C)C(=O)N[C@H](C)[C@@H](O)c1ccccc1)OC)N(C)C(=O)[C@@H](NC(=O)[C@H](C(C)C)N(C)C(=O)OCc1ccc(NC(=O)[C@H](CCCNC(N)=O)NC(=O)[C@@H](NC(=O)CCCC(=O)NCCC(=O)N(C)CC(=O)N(C)CC(=O)N(C)CC(=O)N(C)CC(=O)N(C)CC(=O)N(C)CC(=O)N(C)CC(=O)N(C)CC(=O)N(C)CC(=O)N(C)CC(=O)NC(C)C(=O)NC2CSCc3cc4cc(c3)CSCC(NC(=O)C(C)NC(=O)C(Cc3cccc5ccccc35)NC(=O)C(CCC(=O)O)NC(=O)C(CC(N)=O)NC(=O)C(C)NC2=O)C(=O)NC(CCC(=O)O)C(=O)NC(CC(=O)O)C(=O)NC(Cc2ccccc2)C(=O)NC(Cc2ccc(O)cc2)C(=O)NC(CC(=O)O)C(=O)NC(C(C)(C)C)C(=O)NC(C(N)=O)CSC4)C(C)C)cc1)C(C)C (stereo partly shown) [Compound I-1a] (I: [Sar][Sar][Sar][Sar][Sar][Sar][Sar][Sar][Sar][Sar][ξA][ξC][ξA][ξN][ξE][ξ1Nal][ξA][ξC][ξE][ξD][ξF][ξY][ξD][ξTle][ξC]-NH2 / II: V[Cit][PABC][NMeV]V[Dil][Dolaproine]-X1; linker I:12-I:18-I:25 via TBMB; linker I:N-II:N via X2),cytotoxic activity over the cell line panel (in words),11 tumor cell lines,works well on all cell lines except HCT-15
same,Body Weight,"[1]; 1 mg/kg i.v. tiw x2 w, day 0",23.4 g
same,Body Weight,"[1]; 1 mg/kg i.v. tiw x2 w, day 2",23.3 g
same,Body Weight,"[1]; 1 mg/kg i.v. tiw x2 w, day 4",23.6 g
same,Body Weight,"[1]; 1 mg/kg i.v. tiw x2 w, day 7",23.8 g
same,Body Weight,"[1]; 1 mg/kg i.v. tiw x2 w, day 9",24.0 g
same,Body Weight,"[1]; 1 mg/kg i.v. tiw x2 w, day 11",24.0 g
same,Body Weight,"[1]; 1 mg/kg i.v. tiw x2 w, day 14",23.8 g
same,Body Weight,"[1]; 3 mg/kg i.v. tiw x2 w, day 0",21.9 g
same,Body Weight,"[1]; 3 mg/kg i.v. tiw x2 w, day 2",21.4 g
same,Body Weight,"[1]; 3 mg/kg i.v. tiw x2 w, day 4",21.7 g
same,Body Weight,"[1]; 3 mg/kg i.v. tiw x2 w, day 7",22.3 g
same,Body Weight,"[1]; 3 mg/kg i.v. tiw x2 w, day 9",22.4 g
same,Body Weight,"[1]; 3 mg/kg i.v. tiw x2 w, day 11",22.0 g
same,Body Weight,"[1]; 3 mg/kg i.v. tiw x2 w, day 14",22.0 g
same,Body Weight,"[1]; 10 mg/kg i.v. tiw x2 w, day 0",23.1 g
same,Body Weight,"[1]; 10 mg/kg i.v. tiw x2 w, day 2",21.8 g
same,Body Weight,"[1]; 10 mg/kg i.v. tiw x2 w, day 4",20.8 g
same,Body Weight,"[1]; 10 mg/kg i.v. tiw x2 w, day 7",19.3 g
same,Body Weight,"[1]; 10 mg/kg i.v. tiw x2 w, day 9",22.0 g
same,Body Weight,"[1]; 10 mg/kg i.v. tiw x2 w, day 11",20.6 g
same,Body Weight,"[1]; 10 mg/kg i.v. tiw x2 w, day 14",22.4 g
same,effect on body weight (in words),"[1]; 10 mg/kg, 3× weekly schedule for two weeks",brief body weight loss which is reversible upon discontinuation of treatment
same,IC50,"L540 cells; 72 hour exposure (low/no MT1 expression), no block, read-out: Standard IC50",1090 nM
same,Fold shift with bacitracin,"L540 cells; 72 hour exposure, 1 mM bacitracin vs none",2.3
same,IC50,"L540 cells; read-out: IC50 with 1 mM bacitracin, 72 hour exposure, + 1 mM bacitracin",2550 nM
same,effect on body weight (in words),[2]; 1 mg/kg,no significant effect on body weight
same,effect on body weight (in words),[2]; 3 mg/kg,without significant effect on body weight
